Assay results reported in patent US8575110B2, “Peptidic nanoparticles as drug delivery and antigen display systems” (Alpha-O Peptides G, priority 2003, dated 2013).

B1: Trimer(Foldon)Cys11—COMP (protein)
chain: GSGYIPEAPRCGQAYVRKDGEWVLLSTFLGGLAPQMLRELQETNAALQDVRELLRQQVKQITFLKNTVMECDACG
notes: Recombinant foldon, two-glycine linker, COMP peptide; residue Asp 11 replaced by a cystein residue
B2: Trimer(Foldon)Cys11—Linker—COMP (protein)
chain: GSGYIPEAPRCGQAYVRKDGEWVLLSTFLGGSGLAPQMLRELQETNAALQDVRELLRQQVKQITFLKNTVMECDACG

Assay: Analytical ultracentrifugation (AUC) of assembled peptidic nanoparticles
Assay type: physicochemical

Row | Molecule | No. of monomers (Example 4 preparation 1 (no DTT), 0.2 mg/ml) | No. of monomers (Example 4 preparation 2 (2 mM DTT), 0.2 mg/ml) | No. of monomers (Example 5 preparation 1 (dissolved directly, 2 mM DTT), 0.3 mg/ml) | No. of monomers (Example 5 preparation 1 (dissolved directly, 2 mM DTT), 0.6 mg/ml) | No. of monomers (Example 5 preparation 1 (dissolved directly, 2 mM DTT), 1.2 mg/ml) | No. of monomers (Example 5 preparation 2 (refolded from 8 M urea), 0.24 mg/ml) | No. of monomers (Example 5 preparation 2 (refolded from 8 M urea), 0.4 mg/ml) | No. of monomers (Example 5 preparation 2 (refolded from 8 M urea), 1.2 mg/ml) | No. of monomers (Example 5 preparation 2 (refolded from 8 M urea), concentration independent, one even unit)
1 | B1 | 9.0 | 11.2 | – | – | – | – | – | – | –
2 | B2 | – | – | 10.1 | 9.8 | 11.3 | 15.1 | 14.3 | 14.8 | 15
